Results reported in paper PMC7508745.

Target: Skp(S126C) (UniProt P0AEU7)
Assay: SEC; HiLoad 16/600 Superdex 200 pg; NMR buffer (20 mM MES, pH 6.5, 150 mM NaCl, 1 mM DTT); refolded protein eluted at 79 mL

A stoichiometry N of 3 was found for “Skp(S126C) (from UniProt P0AEU7 21-161) (natural protein)” in this work.
